According to PMC7954794, “Protein context shapes the specificity of SH3 domain-mediated interactions in vivo” (Nature Communications, 2021):

B1: YLR314C (protein, UniProt P32457 2-520, looked up)
Cell division control protein …: SLKEEQVSIKQDPEQEERQHDQFNDVQIKQESQDHDGVDSQYTNGTQNDDSERFEAAESDVKVEPGLGMGITSSQSEKGQVLPDQPEIKFIRRQINGYVGFANLPKQWHRRSIKNGFSFNLLCVGPDGIGKTTLMKTLFNNDDIEANLVKDYEEELANDQEEEEGQGEGHENQSQEQRHKVKIKSYESVIEENGVKLNLNVIDTEGFGDFLNNDQKSWDPIIKEIDSRFDQYLDAENKINRHSINDKRIHACLYFIEPTGHYLKPLDLKFMQSVYEKCNLIPVIAKSDILTDEEILSFKKTIMNQLIQSNIELFKPPIYSNDDAENSHLSERLFSSLPYAVIGSNDIVENYSGNQVRGRSYPWGVIEVDNDNHSDFNLLKNLLIKQFMEELKERTSKILYENYRSSKLAKLGIKQDNSVFKEFDPISKQQEEKTLHEAKLAKLEIEMKTVFQQKVSEKEKKLQKSETELFARHKEMKEKLTKQLKALEDKKKQLELSINSASPNVNHSPVPTKKKGFLR
B2: YDL225W (protein, UniProt Q07657 2-551, looked up)
Seventh homolog of septin 1: STASTPPINLFRRKKEHKRGITYTMLLCGPAGTGKTAFANNLLETKIFPHKYQYGKSNASISSNPEVKVIAPTKVVSFNSKNGIPSYVSEFDPMRANLEPGITITSTSLELGGNKDQGKPEMNEDDTVFFNLIMTHGIGENLDDSLCSEEVMSYLEQQFDIVLAEETRIKRNPRFEDTRVHVALYFIEPTGHGLREVDVELMKSISKYTNVLPIITRADSFTKEELTQFRKNIMFDVERYNVPIYKFEVDPEDDDLESMEENQALASLQPFAIITSDTRDSEGRYVREYPWGIISIDDDKISDLKVLKNVLFGSHLQEFKDTTQNLLYENYRSEKLSSVANAEEIGPNSTKRQSNAPSLSNFASLISTGQFNSSQTLANNLRADTPRNQVSGNFKENEYEDNGEHDSAENEQEMSPVRQLGREIKQENENLIRSIKTESSPKFLNSPDLPERTKLRNISETVPYVLRHERILARQQKLEELEAQSAKELQKRIQELERKAHELKLREKLINQNKLNGSSSSINSLQQSTRSQIKKNDTYTDLASIASGRD
B3: YER008C (protein, UniProt P33332 1-1336, looked up)
Exocyst complex component SEC3: MRSSKSPFKRKSHSRETSHDENTSFFHKRTISGSSAHHSRNVSQGAVPSSAPPVSGGNYSHKRNVSRASNSSQTSNFLAEQYERDRKAIINCCFSRPDHKTGEPPNNYITHVRIIEDSKFPSSRPPPDSKLENKKKRLLILSAKPNNAKLIQIHKARENSDGSFQIGRTWQLTELVRVEKDLEISEGFILTMSKKYYWETNSAKERTVFIKSLITLYIQTFEGHVPELVNWDLSLFYLDERSYQRAVITNRPGSVSPIKSPTSNFTTNTTQSVGSVPFSAPTERTRRSETESVNPVSTPASVEYHAGMKSLNKAPYSSNSTLNEVNKRYELEQQQQQEEAELRRLEEQKRLQLQKENEMKRLEEERRIKQEERKRQMELEHQRQLEEEERKRQMELEAKKQMELKRQRQFEEEQRLKKERELLEIQRKQREQETAERLKKEEQEALAKKEEEEKSKRNKVDNESYTQEINGKVDNLLEDLNAVLAEETETTPTMQNGTYVPERSTARAHDQLKKPLNIAKVESLGGSDLNDSISLSDEIAGLNTSNLSGEDQDEKNDLSFEKGDEVRYSNNFEGEAPHVYHEVSIIQEEAPAVSQKLILPEENNESEALIESKEEIKTMENIDDEVLLEILTDINWSIEDDADSMIERIDLRLAETEYLFNQNLLSLQKIGPNIRPYEDKVNDECHRIIPTLSLFLMEMSNFSNDIENVESQDNGLQVESANKKLLWNTLDELLKTVSLDEISLNQLLECPIREKNLPWMENQLNLLLKAFQAIGSDGNEVEYNLREISGLKQRLQFYEKVTKIFLNRIVEEMQKKFSNIRGQDISHDQMIRILTTLLIFSPLILFCKEISQKSYQAIVENWNVSIQPVYMELWTKKISQLQGIDTNDEKMNELSLSQLLNEWDTFRKERKTNDINPVFKNSFSLLTECLQTMRQECIVYQNFVEVFFHISSKHNFEEYIKHFNDPDAPPILLDTVKVMQSDREAAVIETQLVSRIFQPIVTRLSSYFVELVKAEPTVAPALTFYLENEIKSLESSNHEFLLSAVTRMYTQIKQVWSDNVEEQVLHFERISNATTNGEILPGILDLPVGLKNSEDLFQFAKRSMDIKDTDEGYESIELMNSSFRKLSIAATRSITHKEVNSSINPNLSDTAALNNDYMETISLLVNSNWLTEMLSMLNFNKDGIFDTSLQNVKKVFDVEKESYASFLLRDTMPKLTAFVYGVSNIIENTNNVNMTNPSRWAAYSRQNLENILLAYTSHEIETLVKRLHTHMVNDFGYHQENAINNVLCDKLWSCIQGQTVSLYLKLYTVIDKHYRGTNIRFTKNDIISAFEEYKNA
B4: YPR055W (protein, UniProt P32855 1-1065, looked up)
Exocyst complex component SEC8: MDYLKPAQKGRRRGLSINSLSETQQSAMNSSLDHLQNDLNRINLQWNRILSDNTNPLELALAFLDDTSVGLGHRYEEFNQLKSQIGSHLQDVVNEHSQVFNTNVASYGKAVSSIMQAQEQTLNLKNCLKEANEKITTDKGSLQELNDNNLKYTKMIDVLVNIEELLQIPEKIEENIRKENFHQVQILLERGFILMNNKSLKTVEILKPINQQLELQEHLLFNNLIEEIHDIMYSKSNKTNFTRVTNNDIFKIISISHNGFTSLENYLYNIVNIDIMEHSKTINKNLEQFIHDQSLNKGNIMLQENAATQAPLAPSRNQENEGFNRIGFLLKTINNINKLPVAFNIITERAKEEIHNIIVKSTESIRSKHPSLLKMATSLKNDNHFGLPVQDILSIILRECFWEIFLKLLYAIQCHRAIFEMSNILQPTSSAKPAFKFNKIWGKLLDEIELLLVRYINDPELISSNNGSIKPINGATNNAPTLPKRKNPKIFSLEYNIEDNSSVKDQAFELKALLKDIFPGFSVSSNMDLDSIYVKDESFEQDEPLVPPSVFNMKVILDPFLLFTQSTSTIVPSVLTQNTISSLTFFDDYMNKSFLPKIQMTMDYLFTVEVESNNPYALELSDENHNIFKTALDFQRLFYNLLNVFNTANTFREKISYCILDLLNHFYNYYLGLFNSLIGTSDRHLTRKIITAWLQNGILMDQEQKILNGDETLFHEESIELFKEIPHFYQAGKGLSKSDLFNNLTLDTILQFSASVLWILNWLPGLKKAINIDEVSQEPMLDADRLRSSWTFSESMDLNYSNPSSSPNSLGNLKILLDDKASKKFDETIDGFKTLKFKLITILRFNIRALCIYDIGSFFQNTKIWNMDVGSIELDQNIASLISELRRTESKLKQQLPEKEKNSIFIGLDIVNNYALIKGAKSIKVLNHNGIKKMLRNVNVLQHAYRNLSSEPSKINMNVTMNFYSLCGSSEAELFEYIKDNELPHCSVEDLKTILRLQFSEEMHRQLKRQSTSSTKGSIKPSNKRYTEALEKLSNLEKEQSKEGARTKIGKLKSKLNAVHTANEK
B5: YJR076C (protein, UniProt P32458 2-415, looked up)
Cell division control protein …: SGIIDASSALRKRKHLKRGITFTVMIVGQSGSGRSTFINTLCGQQVVDTSTTILLPTDTSTEIDLQLREETVELEDDEGVKIQLNIIDTPGFGDSLDNSPSFEIISDYIRHQYDEILLEESRVRRNPRFKDGRVHCCLYLINPTGHGLKEIDVEFIRQLGSLVNIIPVISKSDSLTRDELKLNKKLIMEDIDRWNLPIYNFPFDEDEISDEDYETNMYLRTLLPFAIIGSNEVYEMGGDVGTIRGRKYPWGILDVEDSSISDFVILRNALLISHLHDLKNYTHEILYERYRTEALSGESVAAESIRPNLTKLNGSSSSSTTTRRNTNPFKQSNNINNDVLNPASDMHGQSTGENNETYMTREEQIRLEEERLKAFEERVQQELLLKRQELLQREKELREIEARLEKEAKIKQEE
B6: YBR102C (protein, UniProt P38261 1-753, looked up)
Exocyst complex component …: MVEFSLKKARNNWKHVKKSASSPAKQKTPPSPAKPKQKTKKNPYSDLKDPATSYTLPTINARERSRVATSMQRRLSIHNTNYAPPTLDYSMPLPDMPNMIVPNDNVDSSHNNSSFTTENESVSSKGPSNSLNLSTADLSLNDSSYNKVPARSAMRNTVNPSGSNDPFNNSTSLRKMLANPHFNAKDFVHDKLGNASAITIDKFTSNLTDLSIQVQEEVKLNINKSYNEIMTVNNDLNVAMLELKRVRANINDLNEVLDQCTKIAEKRLQLQDQIDQERQGNFNNVESHSNSPALLPPLKAGQNGNLMRRDRSSVLILEKFWDTELDQLFKNVEGAQKFINSTKGRHILMNSANWMELNTTTGKPLQMVQIFILNDLVLIADKSRDKQNDFIVSQCYPLKDVTVTQEEFSTKRLLFKFSNSNSSLYECRDADECSRLLDVIRKAKDDLCDIFHVEEENSKRIRESFRYLQSTQQTPGRENNRSPNKNKRRSMGGSITPGRNVTGAMDQYLLQNLTLSMHSRPRSRDMSSTAQRLKFLDEGVEEIDIELARLRFESAVETLLDIESQLEDLSERISDEELMLLNLISLKIEQRREAISSKLSQSILSSNEIVHLKSGTENMIKLGLPEQALDLFLQNRSNFIQDLILQIGSVDNPTNYLTQLAVIRFQTIKKTVEDFQDIFKELGAKISSILVDWCSDEVDNHFKLIDKQLLNDEMLSPGSIKSSRKQIDGLKAVGLDFVYKLDEFIKKNSDKIR

tested on: ABP1; test: DHFR-PCA on solid medium, bait ABP1 (Fig. 1B); format: cell-based, Saccharomyces cerevisiae; settings: bait ABP1, label = prey; 2-4 replicates
Text: (§1) Supplement 41467_2021_21873_MOESM8_ESM.xlsx, sheet "Fig1B" | column: medsize; medrep; Ratio; Score

First: B1
Second: B2
The “medrep (log2 median colony size normalized to plate background, PCA score)” value of the first is higher: 4.381 for the first, 2.276 for the second.

B3 and B4 are within 0.2 log units of each other in “medrep (log2 median colony size normalized to plate background, PCA score)” value: 1.509 for the first, 1.475 for the second.

B5 was tested, and the “medrep (log2 median colony size normalized to plate background, PCA score)” value was 2.021.

same assay, conditions: bait ABP1, label = prey; only significant differences showed; PPIs completely lost have a ratio of 0.1 and the gained PPIs 2.5

Going from B3 to B4, the “Ratio (SH3-deleted/WT medrep)” value falls from 2.5 to 0.1.

For B5, the “Ratio (SH3-deleted/WT medrep)” value was 1.374.

tested on: BEM1-2; test: DHFR-PCA on solid medium, bait BEM1-2 (Fig. 1B); format: cell-based, Saccharomyces cerevisiae; settings: bait BEM1-2, label = prey; 2-8 replicates
Text: as §1

Compared with B6, B1 is higher in “medrep (log2 median colony size normalized to plate background, PCA score)” value: 1.504 for the first, 1.7566 for the second.

Compared with B2, B3 is lower in “medrep (log2 median colony size normalized to plate background, PCA score)” value: 2.78 for the first, 1.89 for the second.

Going from B4 to B5, the “medrep (log2 median colony size normalized to plate background, PCA score)” value rises from 1.322 to 1.843.

same assay, conditions: bait BEM1-2, label = prey; only significant differences showed; PPIs completely lost have a ratio of 0.1 and the gained PPIs 2.5

Going from B6 to B1, the “Ratio (SH3-deleted/WT medrep)” value rises from 0.1 to 0.5003.

B2 and B3 are the same in “Ratio (SH3-deleted/WT medrep)” value: 0.1 for the first, 0.1 for the second.

Going from B4 to B5, the “Ratio (SH3-deleted/WT medrep)” value rises from 0.1 to 0.5753.

tested on: BEM1-1; test: DHFR-PCA on solid medium, bait BEM1-1 (Fig. 1B); format: cell-based, Saccharomyces cerevisiae; settings: bait BEM1-1, label = prey; 2-8 replicates
Text: as §1

First: B6
Second: B1
The “medrep (log2 median colony size normalized to plate background, PCA score)” value of the first is lower: 1.504 for the first, 3.511 for the second.

First: B2
Second: B3
The “medrep (log2 median colony size normalized to plate background, PCA score)” value of the first is higher: 2.78 for the first, 1.89 for the second.

First: B4
Second: B5
The “medrep (log2 median colony size normalized to plate background, PCA score)” value of the first is lower: 1.322 for the first, 3.2032 for the second.

same assay, conditions: bait BEM1-1, label = prey; only significant differences showed; PPIs completely lost have a ratio of 0.1 and the gained PPIs 2.5

B6 and B3 are the same in “Ratio (SH3-deleted/WT medrep)” value: 0.1 for the first, 0.1 for the second.

In the case of B4, the “Ratio (SH3-deleted/WT medrep)” value is reported as 0.1.
